The text below walks through data of patent US20250282892A1 (published 2025).

For assay [1], the target named is EGFR tag free antigen (immobilized) (UniProt P00533 25-645). The assay can be described thus: ELISA; dual-binding sandwich: immobilized EGFR-Fc + HER3-His.
The target in assay [2] is HER3 tag free antigen (immobilized) (UniProt P21860 20-643). The assay is described as follows: ELISA; dual-binding sandwich: immobilized HER3-Fc + EGFR-His.
The target in assay [3] is HER3 His tag (UniProt P21860 20-643). The assay can be described thus: ELISA.
The target of assay [4] is EGFR His tag (UniProt P00533 25-645). The assay is described as follows: ELISA.

B1: Patri-Matu-Fc (bispecific antibody)
heavy: not shown
light 1: not shown
light 2: DIQMTQSPSSLSASVGDRVTITCSASSSVTYMYWYQQKPGKAPKLLIYDTSNLASGVPSRFSGSGSGTDYTFTISSLQPEDIATYYCQQWSSHIFTFGQGTKVEIKRTVAAPSVFIFPPSDEQLKSGTASVTCLLNNFYPREAKVQWKVDNALQSGNSQESVTEQDSKDSTYSLVSTLTLSKADYEKHKVYACEVTHQGLSSPVTKSFNRGEC
Consider B1, for which the EC50 in assay [1] stood at 170 nM; in assay [2], 0.55 nM.

B2: BMX003-011 (humanized Patri-Cetu-Fc modified) (bispecific antibody)
heavy: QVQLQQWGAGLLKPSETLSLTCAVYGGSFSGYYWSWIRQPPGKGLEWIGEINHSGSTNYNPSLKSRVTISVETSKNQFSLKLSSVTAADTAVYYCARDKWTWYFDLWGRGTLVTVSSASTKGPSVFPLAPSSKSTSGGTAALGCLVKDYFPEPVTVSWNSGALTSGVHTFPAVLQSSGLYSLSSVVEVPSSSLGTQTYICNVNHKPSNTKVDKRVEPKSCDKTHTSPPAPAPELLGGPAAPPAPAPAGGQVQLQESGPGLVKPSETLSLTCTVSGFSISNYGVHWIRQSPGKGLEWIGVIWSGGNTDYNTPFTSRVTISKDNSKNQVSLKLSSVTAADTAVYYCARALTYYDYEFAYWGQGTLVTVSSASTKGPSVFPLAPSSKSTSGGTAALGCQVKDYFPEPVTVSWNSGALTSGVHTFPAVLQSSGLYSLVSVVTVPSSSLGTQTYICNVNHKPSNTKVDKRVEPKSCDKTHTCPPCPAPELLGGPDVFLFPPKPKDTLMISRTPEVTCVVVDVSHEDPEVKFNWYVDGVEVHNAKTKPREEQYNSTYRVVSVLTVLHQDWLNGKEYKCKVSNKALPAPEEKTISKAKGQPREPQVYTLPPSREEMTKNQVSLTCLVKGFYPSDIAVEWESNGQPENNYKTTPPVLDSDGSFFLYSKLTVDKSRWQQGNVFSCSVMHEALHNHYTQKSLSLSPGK
light 1: not shown
light 2: EIVLTQSPDFQSVTPKEKVTITCRASQSIGTNIHWYQQKPDQSPKLLIKYASESISGVPSRFSGSGSGTDFTLTINSLEAEDAATYYCQQNNNWPTTFGAGTKLEIKRTVAAPSVFIFPPSDEQLKSGTASVTCLLNNFYPREAKVQWKVDNALQSGNSQESVTEQDSKDSTYSLVSTLTLSKADYEKHKVYACEVTHQGLSSPVTKSFNRGEC
On to B2, for which the EC50 in assay [3] worked out at 0.0259 nM; in assay [4], 0.013 nM.

B3: BMX003-010 (humanized Patri-Cetu-Fc) (bispecific antibody)
heavy: not shown
light 1: not shown
light 2: EIVLTQSPDFQSVTPKEKVTITCRASQSIGTNIHWYQQKPDQSPKLLIKYASESISGVPSRFSGSGSGTDFTLTINSLEAEDAATYYCQQNNNWPTTFGAGTKLEIKRTVAAPSVFIFPPSDEQLKSGTASVTCLLNNFYPREAKVQWKVDNALQSGNSQESVTEQDSKDSTYSLVSTLTLSKADYEKHKVYACEVTHQGLSSPVTKSFNRGEC
As to B3, the EC50 in assay [3] is 0.0223 nM; in assay [4], 0.0155 nM.
